Key:
Assay in all cases: fluorescence protection assay
Thrombin = Thrombin (UniProt P00734;P00734 328-363;364-622)
[1] = target: Carcinoembryonic antigen (CEA) (UniProt P06731 35-685)
alpha-fetoprotein (AFP) = target: T1, alpha-fetoprotein (AFP) (UniProt P02771 19-609)
T1 sequence: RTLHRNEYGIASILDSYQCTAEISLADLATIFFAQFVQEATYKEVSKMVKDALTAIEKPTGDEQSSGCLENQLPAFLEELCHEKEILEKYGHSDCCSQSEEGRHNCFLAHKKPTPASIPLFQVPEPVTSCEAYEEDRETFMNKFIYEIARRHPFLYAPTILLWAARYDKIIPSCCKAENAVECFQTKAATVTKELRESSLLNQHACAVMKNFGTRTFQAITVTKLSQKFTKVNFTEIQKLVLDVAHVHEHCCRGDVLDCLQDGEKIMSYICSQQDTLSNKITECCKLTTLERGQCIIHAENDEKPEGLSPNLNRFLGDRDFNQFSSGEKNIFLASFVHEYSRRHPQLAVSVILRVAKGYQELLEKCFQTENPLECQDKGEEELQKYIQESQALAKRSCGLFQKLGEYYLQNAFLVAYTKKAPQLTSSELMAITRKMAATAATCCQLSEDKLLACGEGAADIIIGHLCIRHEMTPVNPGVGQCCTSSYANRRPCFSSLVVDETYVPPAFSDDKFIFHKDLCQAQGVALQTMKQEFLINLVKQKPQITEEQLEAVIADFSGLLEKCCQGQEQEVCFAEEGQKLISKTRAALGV

Measured: binding result

Carcinoembryonic antigen (CEA), sequence (P06731 35-685): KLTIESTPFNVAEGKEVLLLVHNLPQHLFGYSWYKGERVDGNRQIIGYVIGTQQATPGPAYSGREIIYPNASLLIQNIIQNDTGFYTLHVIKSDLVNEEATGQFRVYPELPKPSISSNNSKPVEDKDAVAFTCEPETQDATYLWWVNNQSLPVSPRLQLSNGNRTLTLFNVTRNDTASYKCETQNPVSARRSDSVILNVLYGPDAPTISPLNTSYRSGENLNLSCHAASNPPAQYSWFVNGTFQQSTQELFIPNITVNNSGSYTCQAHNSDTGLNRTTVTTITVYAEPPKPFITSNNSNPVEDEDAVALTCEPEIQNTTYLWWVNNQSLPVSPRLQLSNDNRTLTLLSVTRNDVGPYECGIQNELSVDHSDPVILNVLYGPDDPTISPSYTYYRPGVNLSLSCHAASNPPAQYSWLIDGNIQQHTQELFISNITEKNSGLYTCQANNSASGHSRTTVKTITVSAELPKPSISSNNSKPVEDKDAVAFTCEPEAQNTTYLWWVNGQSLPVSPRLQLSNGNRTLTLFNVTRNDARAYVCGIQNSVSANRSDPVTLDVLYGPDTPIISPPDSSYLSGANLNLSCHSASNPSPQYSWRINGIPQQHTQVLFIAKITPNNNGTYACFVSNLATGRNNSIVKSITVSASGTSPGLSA

GCGCGGGGCACGTTTATCCGTCCCTCCTAGTGGCGTGCCCCGCGC (structured_DNA, FITC-modified T at Site 1 (position only in Fig 2A)) [IgE aptamer, FITC at Site 1]
no binding: all assays above
